Measured values reported in patent publication US20200368361A1 (Regeneron, published 2020).

T1: full length human MSR1 with a C-terminal Myc tag on HEK293.Myc.hMSR1 cells (human, UniProt P21757 1-451)
T1 construct: whole, on cells
T1 sequence (looked up): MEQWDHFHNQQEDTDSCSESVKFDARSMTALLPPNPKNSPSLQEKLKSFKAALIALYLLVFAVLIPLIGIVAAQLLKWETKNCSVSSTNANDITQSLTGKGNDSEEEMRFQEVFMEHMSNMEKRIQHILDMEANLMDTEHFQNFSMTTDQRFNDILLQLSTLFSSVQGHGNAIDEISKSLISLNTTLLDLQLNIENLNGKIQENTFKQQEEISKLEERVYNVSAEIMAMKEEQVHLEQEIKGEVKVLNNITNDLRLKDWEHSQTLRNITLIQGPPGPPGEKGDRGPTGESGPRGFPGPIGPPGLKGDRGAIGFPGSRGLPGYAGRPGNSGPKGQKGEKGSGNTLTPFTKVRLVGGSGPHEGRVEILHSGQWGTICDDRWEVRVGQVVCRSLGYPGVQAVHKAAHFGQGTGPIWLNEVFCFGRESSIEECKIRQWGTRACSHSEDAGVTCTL

T2: full length monkey MSR1 on HEK293.mfMSR1 cells (Macaca fascicularis, UniProt A0A2K5UWE2 1-451)
T2 construct: whole, on cells
T2 sequence: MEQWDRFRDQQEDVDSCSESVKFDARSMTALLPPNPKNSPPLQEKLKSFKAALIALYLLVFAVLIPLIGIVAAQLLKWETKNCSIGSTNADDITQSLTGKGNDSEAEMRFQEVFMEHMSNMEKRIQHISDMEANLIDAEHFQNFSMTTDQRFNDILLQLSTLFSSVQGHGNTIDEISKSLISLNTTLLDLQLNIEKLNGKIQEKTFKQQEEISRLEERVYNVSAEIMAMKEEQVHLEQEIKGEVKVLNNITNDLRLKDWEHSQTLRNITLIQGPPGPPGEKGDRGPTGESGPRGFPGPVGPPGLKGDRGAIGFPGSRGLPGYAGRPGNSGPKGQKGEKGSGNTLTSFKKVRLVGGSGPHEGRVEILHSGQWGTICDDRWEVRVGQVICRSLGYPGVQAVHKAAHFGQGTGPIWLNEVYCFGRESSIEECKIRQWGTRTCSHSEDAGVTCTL

T3: mouse MSR1 on RAW264.7 cells (mouse, UniProt P30204 1-458)
T3 construct: whole, on cells
T3 sequence (looked up): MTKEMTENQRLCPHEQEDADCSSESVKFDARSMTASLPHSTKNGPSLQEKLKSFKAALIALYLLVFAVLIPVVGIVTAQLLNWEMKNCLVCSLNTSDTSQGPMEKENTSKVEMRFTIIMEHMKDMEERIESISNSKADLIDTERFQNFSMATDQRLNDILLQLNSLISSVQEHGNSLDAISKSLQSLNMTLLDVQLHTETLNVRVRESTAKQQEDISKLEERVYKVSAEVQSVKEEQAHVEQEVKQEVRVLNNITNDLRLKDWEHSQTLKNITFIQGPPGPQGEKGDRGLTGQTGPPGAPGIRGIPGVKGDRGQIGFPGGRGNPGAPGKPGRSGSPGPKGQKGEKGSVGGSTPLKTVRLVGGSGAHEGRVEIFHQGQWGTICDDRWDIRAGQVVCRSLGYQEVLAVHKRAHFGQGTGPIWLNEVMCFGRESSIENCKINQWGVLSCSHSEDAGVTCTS

T4: monkey MSR1 extracellular domain expressed with a N-terminal hexahistidine-myc-myc tag (HMM-mfMSR1) (monkey (Macaca fascicularis))
T4 chain: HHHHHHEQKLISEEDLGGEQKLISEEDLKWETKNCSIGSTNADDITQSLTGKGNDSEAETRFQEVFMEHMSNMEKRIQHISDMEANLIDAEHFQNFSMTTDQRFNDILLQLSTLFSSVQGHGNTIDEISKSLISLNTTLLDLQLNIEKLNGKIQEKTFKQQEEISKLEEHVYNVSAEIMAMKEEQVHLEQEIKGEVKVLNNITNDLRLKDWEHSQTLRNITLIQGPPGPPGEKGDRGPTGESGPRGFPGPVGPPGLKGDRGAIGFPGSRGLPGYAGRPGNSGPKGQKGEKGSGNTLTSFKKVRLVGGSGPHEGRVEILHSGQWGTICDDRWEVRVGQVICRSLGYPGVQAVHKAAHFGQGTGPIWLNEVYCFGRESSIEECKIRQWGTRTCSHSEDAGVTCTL


What was measured:
[1] = molecular target: T1, full length human MSR1 with a …; assay: ECL cell binding, HEK293.Myc.hMSR1
Method: All cells were washed once with 1×PBS with Ca²⁺/Mg²⁺ and counted with a Cellometer™ Auto T4 cell counter (Nexcelom Bioscience). Approximately 1.0×10⁴ cells were seeded separately onto 96-well carbon electrode plates [MULTI-ARRAY high bind plate, Meso Scale Diagnostics] and incubated for 1 hour at 37° C. Non-specific binding sites were then blocked by 2% BSA (w/v) in PBS with Ca²⁺/Mg²⁺ for 1 hour at room temperature. THP-1 cells were pre-incubated for 0.5 hours at room temperature in sample dilution buffer with: 1) 1 mg/mL Fc receptor block reagents to block Fc gamma receptors on THP-1 cell surface [whole molecule human IgG (Jackson Immunoresearch, Cat #009-000-003) for wells being tested with anti-MSR1-mFc antibodies or 2) whole molecule mIgG (Jackson Immunoresearch, Cat #015-000-003) for wells being tested with anti-MSR1-hFc antibodies. Antibody binding on HEK293.Myc.hMSR1, HEK293.mfMSR1 and HEK293 cells was tested without Fc receptor block reagents. […] Plates were then washed to remove unbound antibodies an AquaMax2000 plate washer with a cell washing head (MDS Analytical Technologies). […] Plates were washed and developed with Read Buffer (Meso Scale Diagnostics, Cat #R92TD-2) according to manufacturer's recommended procedure and luminescent signals were recorded with a SECTOR Imager 600 (Meso Scale Diagnostics). Luminescence intensity, measured in relative light units (RLU), was recorded to indicate the binding intensity of each antibody at the range of concentrations.

[2] = molecular target: T2, full length monkey MSR1 on …; assay: ECL cell binding, HEK293.mfMSR1
[3] = molecular target: T3, mouse MSR1 on RAW264.7 cells; assay: flow cytometry, RAW264.7 cells, 10 ug/mL;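 further: antibodies bound to RAW264.7 cells for 30 min on ice after Fc block with mouse IgG, S/N is MFI relative to unstained cells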
Method: To block binding to Fc receptors, RAW264.7 cells were incubated for 30 minutes at 4° C. with 500 μg/mL mouse IgG (Jackson ImmunoResearch, Cat #015-000-003) diluted in staining buffer, while B16F10.9 cells remained in staining buffer. Following Fc receptor blocking, 10 μg/mL of anti-MSR1 antibodies or an isotype control antibody were added to the cells and were subsequently incubated for 30 minutes on ice. […] The signal to noise (S/N) was determined by calculating the ratio of the anti-MSR1 antibodies or the control antibodies MFI to the unstained sample MFI (Table 16).

[4] = molecular target: T4, monkey MSR1 extracellular domain …; assay: SPR Biacore, 25C, mAb captured by anti-human Fc, MSR1 as analyte;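 further: Half-life of complex dissociation derived from kinetic rates, obtained by fitting Biacore 4000 sensorgrams to a 1:1 model including mass transport, run in HBS-ET buffer at pH 7.4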
Method: Binding affinities and kinetic constants of human anti-MSR1 antibodies for different MSR1 reagents were determined by real-time surface plasmon resonance (Biacore 4000). All binding studies were performed in 10 mM HEPES, 150 mM NaCl, 3 mM EDTA, and 0.05% v/v Surfactant Tween-20, pH 7.4 (HBS-ET) running buffer at 25° C. and 37° C.
The association rate (kₐ) and dissociation rate (kd) were determined by fitting the real-time binding sensorgrams to a 1:1 binding model with mass transport limitation using Scrubber 2.0 c curve-fitting software.

Row | Binder | binding signal ratio to isotype control (11 nM) [1] [fold] | binding signal ratio to isotype control (11 nM) [2] [fold] | MFI [3] | S/N [3] | t½ [4] [min]
1 | H1H27739P-N297Q (antibody, human IgG1, V domains shown, human IgG1 Fc with N297Q) VH: EVQLVESGGGLVQPGGSLRLSCTASGFTFSSYAMSWVRQAPGKGLEWVSAISGTGSSTYFTDSVKGRFAISRDNSKNTLYLQMNSLRAEDTAVYYCAKDGEWLSTVTLFDYWGQGTLVTVSS VL: EIVMTQSPATLSVSPGERATLSCRASQSVSSNLAWYQQKPGQAPRLLIYGASTRATGIPARFSGSGSGTDFTLTISSLQSEDFALYYCQQYFIWPPHPTFGPGTKVDIKR | 22 | 20 | 3270 | 1 | 
2 | H1H27747P-N297Q (antibody, V domains shown, human IgG1 Fc with N297Q point mutation) VH: QVQLVESGGAVVQPGRSLRLSCAASGFTFSYYGMHWVRQAPGKGLEWVAVISYDGSKKYYADSVKGRFTISRDNSKNTLYLQMNSLRAEDTAVYYCAKDLTVDFYYGMDVWGQGTTVTVSS VL: DIQMTQSPSSVSASVGDRVTITCRASQGISSWLAWYQQKPGKAPKLLIYATSSLQSGAPSRFSGSGSGTDFTLTISSLQPEDFATYFCQQANSFPYTFGQGTKLEIKR |  |  |  |  | 13
3 | H1H27747P-N297Q (antibody, human IgG1, V domains shown, human IgG1 Fc with N297Q) VH: QVQLVESGGAVVQPGRSLRLSCAASGFTFSYYGMHWVRQAPGKGLEWVAVISYDGSKKYYADSVKGRFTISRDNSKNTLYLQMNSLRAEDTAVYYCAKDLTVDFYYGMDVWGQGTTVTVSS VL: DIQMTQSPSSVSASVGDRVTITCRASQGISSWLAWYQQKPGKAPKLLIYATSSLQSGAPSRFSGSGSGTDFTLTISSLQPEDFATYFCQQANSFPYTFGQGTKLEIKR | 26 | 21 | 3630 | 1 | 
4 | H1H27731P-N297Q (antibody, V domains shown, human IgG1 Fc with N297Q) VH: QLQLQESGPGLVKPSETLSLTCTVSGGSISRISYYWGWIRQPPGKGLEWIGSIYDSGSTYYNPSLKSRVTISIDTSKNQFSLKLSSVTAADTAVYYCVRYSSSSAFAFDYWGQGTLVTVSS VL: DIQMTQSPSSVSASVGDRVTITCRASQGISSWLAWYQQKPGKAPKLLIYAASSLQSGVPSRFSGSGSGTDFTLTISSLQPEDFATYYCQQANSFPFTFGPGTKVDIKR | 48 | 43 | 3510 | 1 | 
5 | H1H27754P-N297Q (antibody, human IgG1, V domains shown, human IgG1 Fc with N297Q) VH: EVQLVESGGGLVQPGGSLRLSCAASGFTFRTYAMTWVRQAPGKGLDWVSAITGDGGNTYYADSVKGRFTISRDNSKNTLYLQMNSLRAEDTAIYYCAKDQRFSFALYYFDYWGQGTLVTVSS VL: DIQMTQSPSSVSASVGDRVTITCRASQGISSWLAWYQQKPGNAPKLLIYAAFSLQSGVPSRFSGSGSGTDFTLTISSLQPEDFATYYCQQANNFPWTFGQGTKVEIKR | 55 | 53 | 5410 | 1 | 
6 | H1H27734P-N297Q (antibody, human IgG1, V domains shown, human IgG1 Fc with N297Q) VH: EVQLVESRGGLVQPGGSLRLSCAASGFTFSSYAMSWVRQAPGKGLEWVSAISGSGGSTFYADSVKGRFTISRDNSKNTVYLQMNSLRAEDTAVYYCAKALVLRFLEWLGDYWGQGTLVTVSS VL: DIQMTQSPSTLSASVGDRVTITCRASQSISSWLAWFQQKPGKAPKLLIYKASSLESGVPSRFSGSGSGTEFTLTISSLQPDDFATYYCQQYKSYWTFGQGTKVEIKR | 40 | 28 | 4780 | 1 | 
7 | H1H27751P-N297Q (antibody, human IgG1, V domains shown, human IgG1 Fc with N297Q) VH: EVQLVESGGGLVQPGGSLRLSCAASGFTFSNYAMHWVRQAPGKGLEYVSAISSNGGSTYYADSVKGRITISRDNSKNTLYLQMGSLRAEDMAVYYCARGRPYYYYFGMDVWGQGTTVTVSS VL: not shown | 63 | 49 | 3820 | 1 | 
8 | H1H27729P-N297Q (antibody, human IgG1, V domains shown, human IgG1 Fc with N297Q) VH: QVQLVESGGGLVKPGGSLRLSCAASGFIFSDYYMSWIRQAPGKGLEWVSYISSSGTTIYGDSVKGRFTMSRDNAKNSLYLQMNSLRAEDTAVYYCARNYALFDYWGQGTLVTVSS VL: DIQMTQSPSSLSASVGDRVTITCQASQDISKYLNWYQQKPGKAPKLLIYYTSNLETGVPSRFSGSGSGTDFTFTISSLQPEDIATYYCHQSDYLPFTFGPGTKVDIKR | 17 | 6 | 3480 | 1 | 

Continued, values first:

Row | binding signal ratio to isotype control (11 nM) [1] [fold] | binding signal ratio to isotype control (11 nM) [2] [fold] | MFI [3] | S/N [3] | t½ [4] [min] | Binder
9 | 33 | 25 | 3520 | 1 |  | H1H27762P2-N297Q (antibody, human IgG1, V domains shown, human IgG1 Fc with N297Q; also called H1H27762P-N297Q) VH: QVQLVQSGAEVKKPGSSVKVSCKASGGTFSRYDISWVRQAPGQGLEWMGGIIPIFGTSNYAQKFQGRVTITTDESTSTVYMELSSLRSEDTAVYYCARGGRYGWFDPWGQGTLVTVSS VL: not shown
10 | 23 | 15 | 3840 | 1 |  | H1H27761P2-N297Q (antibody, human IgG1, V domains shown, human IgG1 Fc with N297Q; also called H1H27761P-N297Q) VH: EVQLVESGGDLVQPGGSLRLSCSASGFTFNIYAMSWVRQAPGKGLEWVSGISGSGGSTYYADSVKGRFTISRDNSKNTLYFQMNSLRVEDTAVYYCAKKISSSSYYYYAMDVWGQGTTVTVSS VL: not shown
11 | 20 | 13 | 3810 | 1 |  | H1H27766P2-N297Q (antibody, human IgG1, V domains shown, human IgG1 Fc with N297Q; also called H1H27766P-N297Q) VH: EVQLVESGGGLVQPGGSLRLSCAASGFTFSSFAMSWVRQAPGKELEWVSSISGRGGSTYYADSVRGRFTISRDNSKITLYLQMNSLRAEDTAVYYCAKDIVFRYTSSAYWYFDLWGRGTLVTVSS VL: not shown
12 | 23 | 25 | 3290 | 1 |  | H1H27759P2-N297Q (antibody, human IgG1, V domains shown, human IgG1 Fc with N297Q; also called H1H27759P-N297Q) VH: EVQLVESGGGFVQPGGSLRLSCAASGFTFSSYAMSWVRQAPGKGLEWVSAISGTGSNTYYADSVKGRFTISRDNSKNTLYLQMNSLRAEDTAVYYCAKDRVTTVTYYFDYWGQGTLVTVSS VL: not shown
13 | 9 | 1 |  |  |  | H1xH29282P2 (antibody, V domains shown, prefix H1xH not explained for the anti-MSR1 antibodies) VH: EVQLVESGGGLVQPGGSLRLSCAASGFTFSTYAMSWVRQAPGKGLEWVSTISGRSDITYFADSVKGRFTVSRDNSKTTLYLQMNSLRAEDTAVYYCATDDDLPLDYWGQGTLVTVSS VL: not shown
14 | 78 | 27 |  |  |  | H2aM21229N (antibody, mouse IgG2a, V domains shown, mouse IgG2a Fc) VH: EVQLVESGGGLVKPGGSLRLSCAASGFTFSRYSMNWVRQAPGKGLEWVSSISSSSSYIYYGDTVKGRFTISRDNAKKSLYLQMNSLRAEDTAVYYCVRDRGQLVLYFDYWGQGTLVTVSS VL: DIQMTQSPASLSTSIRDRVTITCRASLSISSFLNWFQQRPGKAPKLLIYVASNLQSGVPSRFSDSGSGTDFTLTISSLQPEDFATYYCQQNYSTPPITFGQGTRLEIK
